Molecular target: human Claudin-6 (human) (UniProt P56747)
Assay: flow cytometry on Dubca.huCLDN6.Luc cells against Dubca cells

UniProt P56747, sequence (P56747 whole entry): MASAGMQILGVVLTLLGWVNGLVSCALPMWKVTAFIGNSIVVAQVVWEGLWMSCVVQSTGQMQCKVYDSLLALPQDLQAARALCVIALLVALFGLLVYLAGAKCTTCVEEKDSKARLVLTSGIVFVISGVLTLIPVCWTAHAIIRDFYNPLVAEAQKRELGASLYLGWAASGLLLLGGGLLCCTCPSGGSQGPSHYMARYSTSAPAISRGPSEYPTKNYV

- MFI fold over untransduced Dubca cells: 203 fold
Substance: human CLDN6 AlexaFluor 700-conjugated antibody (R&D, Cat. No. FAB3656N)

— US20260027209A1
